Consider one protein from publication PMC3985956 (Biochemistry, 2014).

This data set concerns the molecule itself. In words: electron cryotomography with subvolume averaging.

B1: CheA, full length, purified, for reconstitution with Tsr membranes (enzyme)
chain: MSMDISDFYQTFFDEADELLADMEQHLLVLQPEAPDAEQLNAIFRAAHSIKGGAGTFGFSVLQETTHLMENLLDEARRGEMQLNTDIINLFLETKDIMQEQLDAYKQSQEPDAASFDYICQALRQLALEAKGETPSAVTRLSVVAKSEPQDEQSRSQSPRRIILSRLKAGEVDLLEEELGHLTTLTDVVKGADSLSAILPGDIAEDDITAVLCFVIEADQITFETVEVSPKISTPPVLKLAAEQAPTGRVEREKTTRSNESTSIRVAVEKVDQLINLVGELVITQSMLAQRSSELDPVNHGDLITSMGQLQRNARDLQESVMSIRMMPMEYVFSRYPRLVRDLAGKLGKQVELTLVGSSTELDKSLIERIIDPLTHLVRNSLDHGIELPEKRLAAGKNSVGNLILSAEHQGGNICIEVTDDGAGLNRERILAKAASQGLTVSENMSDDEVAMLIFAPGFSTAEQVTDVSGRGVGMDVVKRNIQKMGGHVEIQSKQGTGTTIRILLPLTLAILDGMSVRVADEVFILPLNAVMESLQPREADLHPLAGGERVLEVRGEYLPIVELWKVFNVAGAKTEATQGIVVILQSGGRRYALLVDQLIGQHQVVVKNLESNYRKVPGISAATILGDGSVALIVDVSALQAINREQRMANTAA
With B1, the binding result is listed as “binds”.
